Test [1] concerns the target T1, human E-selectin, cell-surface expressed (human, UniProt P16581 22-610).
T1 sequence: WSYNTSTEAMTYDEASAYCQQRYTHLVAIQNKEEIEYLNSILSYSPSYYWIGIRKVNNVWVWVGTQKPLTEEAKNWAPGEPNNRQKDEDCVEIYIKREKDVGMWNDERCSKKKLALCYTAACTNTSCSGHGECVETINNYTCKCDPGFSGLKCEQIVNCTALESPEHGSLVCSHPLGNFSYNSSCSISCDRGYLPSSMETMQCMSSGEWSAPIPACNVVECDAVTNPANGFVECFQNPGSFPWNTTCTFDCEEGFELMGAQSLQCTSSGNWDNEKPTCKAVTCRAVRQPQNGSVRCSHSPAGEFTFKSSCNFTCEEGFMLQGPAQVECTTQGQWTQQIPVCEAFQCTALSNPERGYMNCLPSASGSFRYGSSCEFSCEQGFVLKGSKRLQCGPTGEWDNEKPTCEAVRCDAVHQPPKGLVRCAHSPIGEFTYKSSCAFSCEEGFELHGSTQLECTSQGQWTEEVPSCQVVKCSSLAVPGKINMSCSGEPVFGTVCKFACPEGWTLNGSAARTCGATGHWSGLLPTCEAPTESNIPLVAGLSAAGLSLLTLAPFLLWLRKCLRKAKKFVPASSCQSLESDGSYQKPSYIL
The test can be described thus: cell-based or functional assay.

Test [2] has as its target T2, free soluble human E-selectin in human serum (human, UniProt P16581 22-556, limits assumed).
T2 construct: also called endogenous human E-selectin
T2 sequence (looked up): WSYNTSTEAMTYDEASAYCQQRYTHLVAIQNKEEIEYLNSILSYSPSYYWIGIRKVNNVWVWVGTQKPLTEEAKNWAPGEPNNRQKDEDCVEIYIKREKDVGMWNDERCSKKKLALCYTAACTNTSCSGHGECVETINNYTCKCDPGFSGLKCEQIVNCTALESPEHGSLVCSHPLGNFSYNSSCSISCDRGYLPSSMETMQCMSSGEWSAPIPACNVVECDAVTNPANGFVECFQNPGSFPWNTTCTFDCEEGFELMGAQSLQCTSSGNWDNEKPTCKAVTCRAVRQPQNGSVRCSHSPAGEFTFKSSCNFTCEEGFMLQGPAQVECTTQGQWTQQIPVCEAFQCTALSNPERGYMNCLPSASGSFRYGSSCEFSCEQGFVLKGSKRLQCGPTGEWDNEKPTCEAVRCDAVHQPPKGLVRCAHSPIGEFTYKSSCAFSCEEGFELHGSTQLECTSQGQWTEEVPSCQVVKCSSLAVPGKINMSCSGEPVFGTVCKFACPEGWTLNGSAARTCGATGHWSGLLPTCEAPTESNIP
The test can be described thus: IP-LC/MS/MS of free soluble E-selectin in human serum, capture by biotinylated 0164. As to the method:
This method quantified free soluble human E-selectin in human serum or free soluble monkey E-selectin in cynomolgus monkey serum. The method used 50 μL of serum in 250 μL of PBS which was incubated overnight at 4° C. […] After incubation, 30 μL of Invitrogen T1 streptavidin magnetic beads were added to each sample followed by incubation for 40 minutes at room temperature (shaking at 1000 rpm). Using a Hamilton Microlabstar, the magnetic beads were then washed two times with PBS/0.05% Tween-20 followed by one wash with PBS. Soluble E-selectin was then eluted from the beads with 145 μL of 30 mM hydrochloric acid (HCl) and neutralized with 32 μL of 1 M Tris HCl, pH 8. Subsequently 50 fmol of stable isotope labeled (SIL) internal standard was added, followed by the addition of dithiothreitol (DTT, 10 μL×50 mM). After incubating 35 minutes at 60° C. the samples were allowed to cool to room temperature prior to the addition of iodoacetamide (IAA, 10 μL×100 mM). Samples were then placed in the dark for 30 minutes to which 1 μg of Promega LysC/trypsin (10 μL×100 […]) was added and then digested overnight at 37° C.
After overnight incubation, 50 μL of prepared sample was injected onto the nano ESILC-MS/MS.

B1: anti-E-selectin antibody 0164 chimera (antibody, human IgG1, kappa, V domains shown)
VH: EVQLQQSGAEFGKPGTSVKLSCKVSGYNIRSSYMHWVNQRPGKGLEWIGRIDPANGNTIYAEKFKIKAILTADSSSNTAYMQLSQLKSDDTAIYFCAMDLYSTSEYWGQGVMVTVSS
VL: DIQMTQSPSFLSASVGDRVTINCKTSQNINRYLNWYQQKLGEAPKLLIYNANSLQTGIPSRFSASGSGTDFTLTINSLQPEDVATYFCLQDNSWPLTFGSGTKLEIKR
notes: rat VH/VL on effector-null human IgG1 and human kappa
As for B1, in test [1], the “static neutralization of HL-60 cell adhesion, CHO-human E-selectin cells-IC50” value was 4.4 nM.

B2: optimized anti-E-selectin antibody 1282 (antibody, human IgG1, kappa, V domains shown)
VH: EVQLVESGGGLVQPGGSLRLSCAASGYAIRSAYMHWVRQAPGKGLEWVARIDPANGNTIYVDSVEGRFTISADNAKNSAYLQMNSLRAEDTAVYYCAMDLYSTSEYWGQGTLVTVSS
VL: DIQMTQSPSSLSASVGDRVTITCKTSQNIERYLNWYQQKPGKAPKLLIYAASSLQSGVPSRFSGSGSGTDFTLTISSLQPEDFATYFCLQDNAWPLTFGQGTKVEIKR
notes: effector-null human IgG1, kappa
Turning to B2, in test [1], the “static neutralization of HL-60 cell adhesion, CHO-human E-selectin cells-IC50” value turned out to be 3.4 nM. For the same molecule, in test [2], the 50% inhibitory concentration (IC50) was 2.4 nM and the IC90 turned out to be 4.9 nM.

B3: optimized anti-E-selectin antibody 1284 (antibody, human IgG1, kappa, V domains shown)
VH: EVQLVESGGGLVQPGGSLRLSCAASGYAIRSAYMHWVRQAPGKGLEWVARIDPANGNTIYVESVEGRFTISADNAKNSAYLQMNSLRAEDTAVYYCAMDLYSTSEYWGQGTLVTVSS
VL: DIQMTQSPSSLSASVGDRVTITCKTSQNIERYLNWYQQKPGKAPKLLIYAASSLQSGVPSRFSGSGSGTDFTLTISSLQPEDFATYFCLQDNAWPLTFGQGTKVEIKR
notes: as for B2
With B3, the “static neutralization of HL-60 cell adhesion, CHO-human E-selectin cells-IC50” value in test [1] turned out to be 4.4 nM. In test [2], the IC50 was found to be 1.1 nM and it took 4.8 nM to reach the 90% level (IC90).

B4: optimized anti-E-selectin antibody 1444 (antibody, human IgG1, kappa, V domains shown)
VH: EVQLVESGGGLVQPGGSLRLSCAASGYAIRSAYMHWVRQAPGKGLEWVARIDPANGNTIYVDSVTGRFTISADNAKNSAYLQMNSLRAEDTAVYYCAMDLYSTSEYWGQGTLVTVSS
VL: DIQMTQSPSSLSASVGDRVTITCKTSQNIERYLNWYQQKPGKAPKLLIYAASSLQSGVPSRFSGSGSGTDFTLTISSLQPEDFATYFCLQDNAWPLTFGQGTKVEIKR
notes: as for B2
For B4, in test [1], the “static neutralization of HL-60 cell adhesion, CHO-human E-selectin cells-IC50” value amounted to 4.7 nM. In test [2], this molecule displayed a half-inhibitory concentration (IC50) of 1.2 nM and a 90% effect concentration (IC90) of 6.5 nM.

B5: optimized anti-E-selectin antibody 1448 (antibody, human IgG1, kappa, V domains shown)
VH: EVQLVESGGGLVQPGGSLRLSCAASGYAIRSAYMHWVRQAPGKGLEWVARIDPANGNTIYVDSVKERFTISADNAKNSAYLQMNSLRAEDTAVYYCAMDLYSTSEYWGQGTLVTVSS
VL: DIQMTQSPSSLSASVGDRVTITCKTSQNIERYLNWYQQKPGKAPKLLIYAASSLQSGVPSRFSGSGSGTDFTLTISSLQPEDFATYFCLQDNAWPLTFGQGTKVEIKR
notes: as for B2
B5: in test [1], the “static neutralization of HL-60 cell adhesion, CHO-human E-selectin cells-IC50” value was 6.2 nM. In test [2], this molecule came in with a concentration for half-maximal inhibition (IC50) of 1.8 nM and an IC90 of 8.6 nM.

By IC50 is commonly meant the concentration at which inhibition is half-maximal. Higher therefore signals a need for much substance. The term IC90 denotes the concentration needed for an effect of 90%.

Values taken from patent US20240076386A1 (Pfizer, published 2024).
